Test results: PMC9927353

Target: FleQ (Pseudomonas aeruginosa PAO1) (UniProt G3XCV0)
Experiment: EMSA

Chain of FleQ (Pseudomonas aeruginosa PAO1) (G3XCV0 whole entry): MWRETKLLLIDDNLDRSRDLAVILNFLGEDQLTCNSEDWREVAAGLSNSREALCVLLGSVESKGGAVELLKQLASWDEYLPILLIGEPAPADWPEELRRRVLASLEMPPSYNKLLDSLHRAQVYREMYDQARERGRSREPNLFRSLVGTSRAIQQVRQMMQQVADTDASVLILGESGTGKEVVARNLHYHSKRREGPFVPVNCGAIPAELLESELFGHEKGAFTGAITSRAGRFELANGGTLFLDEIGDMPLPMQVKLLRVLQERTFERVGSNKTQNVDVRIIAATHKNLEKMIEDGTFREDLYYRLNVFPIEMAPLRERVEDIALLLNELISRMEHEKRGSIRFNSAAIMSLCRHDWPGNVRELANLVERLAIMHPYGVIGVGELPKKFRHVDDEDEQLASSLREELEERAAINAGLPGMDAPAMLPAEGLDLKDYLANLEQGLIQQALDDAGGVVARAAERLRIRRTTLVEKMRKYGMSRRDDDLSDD

For “GAGTTGCAGCCTTTCCTTGCCGTCAGCCATGGCGCACCTCCGGACGAGGGTACGCGCAGGGGTCTTCGAGATGGCTCATTATTCTTGTCTCCACTCTGTCAGAGGCCGTGTCTTGCGCACGGATGAGCGGATTATTGGCGGCGGATGTAAGACGCCGTTGAACGCGCGGATCGAAGATGTAAAAAGCTGTAAGGAAGTTGTTCGCCGCG (double strand) [lysP promoter (4981)]”, the binding was “binds”.
